Measurements reported in US20030082683A1.

Legend:
[1] = target: T1, hIK1 intermediate conductance, calcium-activated potassium channel (human), O15554; experiment: block of macroscopic hIK1 current, patch clamp on macropatches from Xenopus oocytes
T1 chain: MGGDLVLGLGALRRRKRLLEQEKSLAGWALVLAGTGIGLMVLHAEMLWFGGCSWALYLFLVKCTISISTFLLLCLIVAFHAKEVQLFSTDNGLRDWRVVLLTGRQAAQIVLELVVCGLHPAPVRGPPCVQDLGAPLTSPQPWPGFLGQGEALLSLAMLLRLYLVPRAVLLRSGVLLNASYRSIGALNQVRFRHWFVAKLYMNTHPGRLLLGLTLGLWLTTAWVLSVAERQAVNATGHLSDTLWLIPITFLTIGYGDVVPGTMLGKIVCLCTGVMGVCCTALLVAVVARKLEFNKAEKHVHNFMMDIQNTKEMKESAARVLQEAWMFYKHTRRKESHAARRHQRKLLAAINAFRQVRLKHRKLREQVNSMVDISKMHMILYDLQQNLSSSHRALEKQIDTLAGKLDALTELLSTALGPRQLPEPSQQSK

[2] = target: rSK2 small conductance, calcium-activated potassium channel (rat), P70604
rSK2 small conductance, calcium-activated potassium channel (rat), P70604, sequence (P70604 whole entry): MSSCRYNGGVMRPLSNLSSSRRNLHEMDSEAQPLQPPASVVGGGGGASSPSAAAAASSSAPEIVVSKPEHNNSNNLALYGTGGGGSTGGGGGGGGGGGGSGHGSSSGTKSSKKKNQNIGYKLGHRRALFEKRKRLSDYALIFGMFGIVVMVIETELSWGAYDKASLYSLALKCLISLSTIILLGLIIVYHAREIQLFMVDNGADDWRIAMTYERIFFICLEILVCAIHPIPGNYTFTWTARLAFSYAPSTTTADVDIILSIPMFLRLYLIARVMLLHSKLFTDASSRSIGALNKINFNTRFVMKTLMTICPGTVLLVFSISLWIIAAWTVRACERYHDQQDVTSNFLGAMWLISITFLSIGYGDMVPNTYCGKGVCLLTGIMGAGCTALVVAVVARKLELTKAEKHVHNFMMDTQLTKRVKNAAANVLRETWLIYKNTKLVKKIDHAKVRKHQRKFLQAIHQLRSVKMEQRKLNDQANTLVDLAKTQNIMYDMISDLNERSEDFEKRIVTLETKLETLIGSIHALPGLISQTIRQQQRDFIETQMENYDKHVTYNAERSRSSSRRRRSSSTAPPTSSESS

B1: charybdotoxin, P13487 23-59 (peptide)
peptide: QFTNVSCTTSKECWSVCQRLHNTSRGKCMNKKCRCYS
modifications: not checked
Binder B1 has a Ki [1] of 2.5 nM.

B2: apamin, P01500 28-45 (peptide)
peptide: CNCKAPETALCARRCQQH
modifications: not checked
Binder B2 has a Kd [2] of 0.063 nM.
